What was measured:
[1] = target: recombinant human alpha synuclein E46K (human) (UniProt P37840); test: cell-based or functional assay
[2] = target: recombinant human wild type alpha synuclein (human) (UniProt P37840); test: cell-based or functional assay
[3] = target: recombinant human alpha synuclein A30P (human) (UniProt P37840); test: cell-based or functional assay
[4] = target: recombinant human alpha synuclein A53T (human) (UniProt P37840); test: cell-based or functional assay
[5] = target: biotinylated alpha synuclein (aSN) 1-140 (UniProt P37840); test: SPR (Biacore 8K), biotinylated aSN on SA chip, binder as analyte, 37 °C
[6] = target: biotinylated alpha synuclein (aSN) 1-140 (UniProt P37840); test: SPR (Biacore 8K), biotinylated aSN on SA chip, binder as analyte, 25 °C

Substance AS69 (designed binder) has a Ranking of the binders in figure 5 (ThT aggregation assay) [1] of 4 rank, a Ranking of the binders in figure 5 (ThT aggregation assay) [2] of 3 rank and a Ranking of the binders in figure 5 (ThT aggregation assay) [3] of 5 rank. It also gave a Ranking of the binders in figure 5 (ThT aggregation assay) [4] of 6 rank, a Kd [5] of 64.9 nM and a koff [5] of 0.000252 s⁻¹. The kon [5] was 3880 M⁻¹ s⁻¹, the Kd [6] was 72.2 nM and the koff [6] was 0.000114 s⁻¹. For the same substance, the kon [6] was 1580 M⁻¹ s⁻¹.

Source: patent publication EP4421085A1
